Data as given in US6521748B2, “Polynucleotide encoding a mutant Rhodotorula glutinis tyrosine ammonia lyase polypeptide” (E. I. du Pont de Nemours and Company, priority 1999, dated 2003).
Like-named read-outs stand apart in the source and are kept apart here.

Legend:
[1] = tested on: tyrosine-auxotrophic E. coli strain AT2471 containing pCA18Km; assay: Growth of tyrosine-auxotrophic E. coli on minimal plate with tyrosine; format: cell-based; parameters: key: −: no growth; +: very poor growth; ++: poor growth; +++: good growth; details: no PHCA
Protocol: (§1) In order to find the suitable condition for selection, cell growth was tested on a minimal plate containing various concentrations of tyrosine or PHCA (see Table 9).

[2] = tested on: tyrosine-auxotrophic E. coli strain AT2471 containing pCA18Km; assay: Toxicity of PHCA to tyrosine-auxotrophic E. coli on minimal plate; format: cell-based; parameters: key to cell growth: −: no growth; +: very poor growth; ++: poor growth; +++: good growth; details: for cell growth: 0.004 mM tyrosine added
Protocol: as §1

[3] = Enzyme kinetics of purified wild type and mutant PAL, TAL activity (spectrophotometric); format: biochemical; details: tyrosine as substrate
Protocol: (§2) The PAL or TAL activity of the purified enzymes were measured using a spectrophotometer according to Abell et al., “Phenylalanine Ammonia-lyase from Yeast Rhodotorula glutinis,” Methods Enzymol. 142:242-248 (1987). The spectrophotometric assay for PAL determination was initiated by the addition of the enzyme to a solution containing 1.0 mM L-phenylalanine and 50 mM Tris-HCl (pH 8.5). The reaction was then followed by monitoring the absorbance of the product, cinnamic acid, at 290 nm using a molar extinction coefficient of 9000 cm^−1. The assay was run over a 5 min period using an amount of enzyme that produced absorbance changes in the range of 0.0075 to 0.018/min. One unit of activity indicated deamination of 1.0 μmol of phenylalanine to cinnamic acid per minute. The TAL activity was similarly measured using tyrosine in the reaction solution. The absorbance of the para-hydroxycinnamic acid produced was followed at 315 nm and the activity was determined using an extinction coefficient of 10,000 cm^−1 for PHCA. One unit of activity indicated deamination of 1.0 μmol of tyrosine to para-hydroxycinnamic acid per minute.
(§3) A detailed enzyme kinetics analysis using the yeast wild type and the purified mutant PAL enzyme and tyrosine or phenylalanine as substrate, was carried out. The PAL and TAL activities were measured spectrophotometrically as described in the General Methods and the KM and Vmax were determined from its Lineweaver-Burke plot. The kcat was calculated from Vmax assuming the presence of four active sites in the active tetramer.

[4] = Ratio of TAL to PAL catalytic efficiency of purified enzymes; format: biochemical
Protocol: as §3
The catalytic efficiency, defined as kcat/KM, was calculated for both the wild type and mutant enzyme. The ratio of the TAL catalytic efficiency versus the PAL of the wild type enzyme was 0.5 while that of the mutant enzymes had increased to 1.7 (see Table 11).

[5] = TAL specific activity in cell free extracts; format: biochemical; details: cell free extract of E. coli clones over-expressing PAL from pKK223-3
Protocol: as §2
(§4) The cell pellet was resuspended with 0.5 mL/g cells, 50 mM Tris-HCl buffer (pH 8.5) and disrupted by a single passage through the French Pressure Cell at 20,000 psi. The disrupted cells were then centrifuged for 30 min at 14,200×g to remove the unbroken cell mass. […]

[6] = Enzyme kinetics of purified wild type and mutant PAL, PAL activity (spectrophotometric); format: biochemical; details: phenylalanine as substrate
Protocol: as §2, §3

[7] = Whole cell TAL/PAL activity ratio (follow-up assay after high throughput screen); format: cell-based, E. coli
Protocol: The following assay was performed to confirm that fully active mutant PAL enzyme was produced in BL21(DE3) E. coli cells. E. coli cells were grown in LB medium overnight. One mL of cell culture was pelleted and resuspended in 1 mL of 50 mM Tris-HCl buffer (pH 8.5) containing 0.5 mM tyrosine (for TAL activity measurement) or phenylalanine (for PAL activity measurement). The reaction mixture was incubated on the shaker at 37 C. for 1 hr. The reaction mixture was filtrated using 0.2 μm pore size filter (Millipore, Bedford, Mass.), and injected into HPLC (Hewlett-Packard Company, Palo Alto, Calif.). TAL or PAL activity was determined by measuring the concentration of the resulting PHCA or cinnamate. […]
5,000 mutant colonies were picked from agarose plates and screened by high throughput assay (Example 20). The initial hits were further investigated by a follow-up assay to confirm screening results. The TAL and PAL activities were measured using the whole cell assay, described in Example 17, and then ratio of TAL/PAL activities was calculated. The following table summarizes results of the follow-up assay for four mutants with altered TAL/PAL ratios:
A total of 5,000 mutant colonies from these three libraries were screened by high throughput assay (Example 20). Initial hits were further investigated by a follow-up HPLC assay to confirm the screening results as described in Example 21. One mutant with improved TAL/PAL ratio was found (Table 19).

[8] = PAL specific activity in cell free extracts; format: biochemical; details: cell free extract of E. coli clones over-expressing PAL from pKK223-3
Protocol: as §2, §4

[9] = Ratio of PAL to TAL specific activity; format: biochemical; details: purified enzyme
Protocol: The PAL or TAL activity of the purified enzymes were measured using a spectrophotometer according to Abell et al., “Phenylalanine Ammonia-lyase from Yeast Rhodotorula glutinis,” Methods Enzymol. […] The spectrophotometric assay for PAL determination was initiated by the addition of the enzyme to a solution containing 1.0 mM L-phenylalanine and 50 mM Tris-HCl (pH 8.5). The reaction was then followed by monitoring the absorbance of the product, cinnamic acid, at 290 nm using a molar extinction coefficient of 9000 cm^−1. The assay was run over a 5 min period using an amount of enzyme that produced absorbance changes in the range of 0.0075 to 0.018/min. One unit of activity indicated deamination of 1.0 μmol of phenylalanine to cinnamic acid per minute. The TAL activity was similarly measured using tyrosine in the reaction solution. The absorbance of the para-hydroxycinnamic acid produced was followed at 315 nm and the activity was determined using an extinction coefficient of 10,000 cm^−1 for PHCA. One unit of activity indicated deamination of 1.0 μmol of tyrosine to para-hydroxycinnamic acid per minute.
The PAL/TAL activity was determined as described above.

[10] = from Vmax assuming four active sites

Molecule: N[C@@H](Cc1ccc(O)cc1)C(=O)O [Tyrosine, tyrosine]
- cell growth ([1]; 0.0001-0.0002 mM tyrosine): −
- cell growth ([1]; 0.0003-0.0005 mM tyrosine): +
- cell growth ([1]; 0.001-0.004 mM tyrosine): +++

Molecule: O=C(O)C=Cc1ccc(O)cc1 [PHCA, Para-hydroxycinnamic acid]
- cell growth ([2]; 0.0001-0.0002 mM PHCA): +++
- cell growth ([2]; 0.0003-0.0005 mM PHCA): +++
- cell growth ([2]; 0.001-0.004 mM PHCA): +++
- cell growth ([2]; 10 mM PHCA): −
- cell growth ([2]; 1.0-2.0 mM PHCA): ++
- cell growth ([2]; 4.0-6.0 mM PHCA): +
- toxicity to the cells ([2]; high concentrations): toxic

B1: Wild Type PAL: wildtype R. glutinis (Rhodosporidium toruloides) PAL enzyme, SEQ ID NO:8 (protein)
chain: MAPSLDSISHSFANGVASAKQAVNGASTNLAVAGSHLPTTQVTQVDIVEKMLAAPTDSTLELDGYSLNLGDVVSAARKGRPVRVKDSDEIRSKIDKSVEFLRSQLSMSVYGVTTGFGGSADTRTEDAISLQKALLEHQLCGVLPSSFDSFRLGRGLENSLPLEVVRGAMTIRVNSLTRGHSAVRLVVLEALTNFLNHGITPIVPLRGTISASGDLSPLSYIAAAISGHPDSKVHVVHEGKEKILYAREAMALFNLEPVVLGPKEGLGLVNGTAVSASMATLALHDAHMLSLLSQSLTAMTVEAMVGHAGSFHPFLHDVTRPHPTQIEVAGNIRKLLEGSRFAVHHEEEVKVKDDEGILRQDRYPLRTSPQWLGPLVSDLIHAHAVLTIEAGQSTTDNPLIDVENKTSHHGGNFQAAAVANTMEKTRLGLAQIGKLNFTQLTEMLNAGMNRGLPSCLAAEDPSLSYHCKGLDIAAAAYTSELGHLANPVTTHVQPAEMANQAVNSLALISARRTTESNDVLSLLLATHLYCVLQAIDLRAIEFEFKKQFGPAIVSLIDQHFGSAMTGSNLRDELVEKVNKTLAKRLEQTNSYDLVPRWHDAFSFAAGTVVEVLSSTSLSLAAVNAWKVAAAESAISLTRQVRETFWSAASTSSPALSYLSPRTQILYAFVREELGVKARRGDVFLGKQEVTIGSNVSKIYEAIKSGRINNVLLKMLA
- Km ([3]; Lineweaver-Burke plot): 111 µM
- kcat [3, 10]: 0.46 s⁻¹
- TAL/PAL ratio (catalytic efficiency) [4]: 0.5
- highest specific activity, TAL [5]: 0.0650 U/mg protein
- Km ([6]; Lineweaver-Burke plot): 250 µM
- kcat [6, 10]: 2.09 s⁻¹
- TAL/PAL ratio [7]: 0.5
- TAL/PAL ratio ([7]; regional mutant amino acid No. 492-503, Table 19): 0.5
- TAL/PAL ratio ([7]; summary table of mutants): 0.5
- highest specific activity, PAL [8]: 0.244 U/mg protein

B2: purified enzyme: purified PAL/TAL enzyme of Rhodosporidium toruloides (protein, UniProt P11544 1-716, looked up)
Phenylalanine/tyrosine …: MAPSLDSISHSFANGVASAKQAVNGASTNLAVAGSHLPTTQVTQVDIVEKMLAAPTDSTLELDGYSLNLGDVVSAARKGRPVRVKDSDEIRSKIDKSVEFLRSQLSMSVYGVTTGFGGSADTRTEDAISLQKALLEHQLCGVLPSSFDSFRLGRGLENSLPLEVVRGAMTIRVNSLTRGHSAVRLVVLEALTNFLNHGITPIVPLRGTISASGDLSPLSYIAAAISGHPDSKVHVVHEGKEKILYAREAMALFNLEPVVLGPKEGLGLVNGTAVSASMATLALHDAHMLSLLSQSLTAMTVEAMVGHAGSFHPFLHDVTRPHPTQIEVAGNIRKLLEGSRFAVHHEEEVKVKDDEGILRQDRYPLRTSPQWLGPLVSDLIHAHAVLTIEAGQSTTDNPLIDVENKTSHHGGNFQAAAVANTMEKTRLGLAQIGKLNFTQLTEMLNAGMNRGLPSCLAAEDPSLSYHCKGLDIAAAAYTSELGHLANPVTTHVQPAEMANQAVNSLALISARRTTESNDVLSLLLATHLYCVLQAIDLRAIEFEFKKQFGPAIVSLIDQHFGSAMTGSNLRDELVEKVNKTLAKRLEQTNSYDLVPRWHDAFSFAAGTVVEVLSSTSLSLAAVNAWKVAAAESAISLTRQVRETFWSAASTSSPALSYLSPRTQILYAFVREELGVKARRGDVFLGKQEVTIGSNVSKIYEAIKSGRINNVLLKMLA
- PAL/TAL ratio [9]: 2.12
